# Experimental data from the supplement of paper PMC10567573.
# B1: ZNF263 (parent)
# chain: PEASHLRFRRFRFQEAAGPREALS
# Variants of: B1
# Test: protein stability index of a GFP-peptide fusion (GPS, HEK-293T) (PSI 1-6); higher = more stable
# Details: c terminus: a fixed tail appended
# 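Note: lentivirally expressed fusions sorted by FACS into six bins by GFP to DsRed ratio, PSI derived from sequencing read proportions per bin multiplied by bin number.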
row,Variant,protein stability index
1,PEASHLRFRRFRFQEAAIPREALS,2.35
2,PEASHLRFRRFRFQEAAEPREALS,3.44
3,PEASHLRFRRFRFQEAACPREALS,2.67
4,PEASHLRFRRFRFQEAAWPREALS,1.88
5,PEASHLRFRRFRFQEAAKPREALS,2.84
6,PEASHLRFRRFRFQEAAFPREALS,2.26
7,PEASHLRFRRFRFQEAAPPREALS,3.36
8,PEASHLRFRRFRFQEAAGPRTALS,2.66
9,PEASHLRFRRFRFQEAAGPRHALS,2.84
10,PEASHLRFRRFRFQEAAGPRQALS,3.03
11,PEASHLRFRRFRFQEAAGPRWALS,2.01
12,PEASHLRFRRFRFQEAAGPRMALS,2.98
13,PEASHLRFRRFRFQEAAGPRAALS,2.56
14,PEISHLRFRRFRFQEAAGPREALS,2.52
15,PEMSHLRFRRFRFQEAAGPREALS,3.55
16,PEWSHLRFRRFRFQEAAGPREALS,1.97
17,PEGSHLRFRRFRFQEAAGPREALS,2.95
18,PEKSHLRFRRFRFQEAAGPREALS,2
19,PECSHLRFRRFRFQEAAGPREALS,2.95
20,PEPSHLRFRRFRFQEAAGPREALS,2.87
21,PEASHLRFRRFRFLEAAGPREALS,3.22
22,PEASHLRFRRFRFCEAAGPREALS,1.89
23,PEASHLRFRRFRFREAAGPREALS,2.59
24,PEASHLRFRRFRFMEAAGPREALS,2.93

row,Variant,protein stability index
1,PEASHLRFRRFRFEEAAGPREALS,3.23
2,PEASHLRFRRFRFHEAAGPREALS,1.16
3,PEASHLRFRRFRFTEAAGPREALS,2.88
4,PEASHLRFRRFRFVEAAGPREALS,2.5
5,PEASHLRFRRDRFQEAAGPREALS,3.66
6,PEASHLRFRRRRFQEAAGPREALS,4.91
7,PEASHLRFRRPRFQEAAGPREALS,4.66
8,PEASHLRFRRWRFQEAAGPREALS,2.67
9,PEASHLRFRRMRFQEAAGPREALS,3.61
10,PEASHLRFRRGRFQEAAGPREALS,3.89
11,PEASHLRFRRCRFQEAAGPREALS,2.45
12,PEASHLRFRRHRFQEAAGPREALS,4.01
13,PEASHLRFRRSRFQEAAGPREALS,3.53
14,PEASHLRFRRFRFQELAGPREALS,2.57
15,PEASHLRFRRFRFQEVAGPREALS,2.31
16,PEASHLRFRRFRFQERAGPREALS,2.88
17,PEASHLRFRRFRFQENAGPREALS,2.69
18,PEASHLRFRRFRFQETAGPREALS,2.11
19,PEASHLRFRRFRFQEIAGPREALS,2.85
20,PEASHLRFRRFRFQEWAGPREALS,2.65
21,PKASHLRFRRFRFQEAAGPREALS,2.83
22,PGASHLRFRRFRFQEAAGPREALS,2.12
23,PTASHLRFRRFRFQEAAGPREALS,2.4
24,PDASHLRFRRFRFQEAAGPREALS,3.22

row,Variant,protein stability index
1,PVASHLRFRRFRFQEAAGPREALS,2.12
2,PCASHLRFRRFRFQEAAGPREALS,1.08
3,PAASHLRFRRFRFQEAAGPREALS,2.88
4,PRASHLRFRRFRFQEAAGPREALS,2.84
5,PNASHLRFRRFRFQEAAGPREALS,2.52
6,PEASHLRFVRFRFQEAAGPREALS,2.21
7,PEASHLRFTRFRFQEAAGPREALS,3.32
8,PEASHLRFARFRFQEAAGPREALS,3.18
9,PEASHLRFCRFRFQEAAGPREALS,2.44
10,PEASHLRFWRFRFQEAAGPREALS,1.62
11,PEASHLRFERFRFQEAAGPREALS,2.21
12,PEASHLRFKRFRFQEAAGPREALS,2.82
13,PEASHLRFMRFRFQEAAGPREALS,2.78
14,PEASHLRFRRFRFQEAAGPREAVS,2.93
15,PEASHLRFRRFRFQEAAGPREADS,3.75
16,PEASHLRFRRFRFQEAAGPREANS,3.15
17,PEASHLRFRRFRFQEAAGPREACS,2.7
18,PEASHLRFRRFRFQEAAGPREATS,2.84
19,PEASHLRFRRFRFQEAAGPREAYS,1.71
20,PEASHLTFRRFRFQEAAGPREALS,3.66
21,PEASHLWFRRFRFQEAAGPREALS,3.63
22,PEASHLFFRRFRFQEAAGPREALS,2.28
23,PEASHLIFRRFRFQEAAGPREALS,1.8
24,PEASHLYFRRFRFQEAAGPREALS,2.36

row,Variant,protein stability index
1,PEASHLEFRRFRFQEAAGPREALS,3.26
2,PEASHLCFRRFRFQEAAGPREALS,2.5
3,PEASHLKFRRFRFQEAAGPREALS,2.92
4,PEASHLRFRRFRFQCAAGPREALS,2.31
5,PEASHLRFRRFRFQRAAGPREALS,1.98
6,PEASHLRFRRFRFQSAAGPREALS,2.54
7,PEASHLRFRRFRFQVAAGPREALS,2.12
8,PEASHLRFRRFRFQMAAGPREALS,2.38
9,PEASHLRFRRFRFQTAAGPREALS,2.74
10,PEASHLRFRRFRFQNAAGPREALS,2.68
11,PEASHLRFRRFRFQKAAGPREALS,2.04
12,PEASHLRFRRFRFQLAAGPREALS,2.02
13,PEASHLRFRRFRFQYAAGPREALS,2.05
14,PEASCLRFRRFRFQEAAGPREALS,2.55
15,PEASLLRFRRFRFQEAAGPREALS,2.74
16,PEASALRFRRFRFQEAAGPREALS,2.61
17,PEASSLRFRRFRFQEAAGPREALS,2.29
18,PEASKLRFRRFRFQEAAGPREALS,1.77
19,PEASVLRFRRFRFQEAAGPREALS,2.15
20,PEASELRFRRFRFQEAAGPREALS,2.47
21,PEASNLRFRRFRFQEAAGPREALS,2.31
22,PEAHHLRFRRFRFQEAAGPREALS,2.04
